In US20260146077A1 (US Dept. of Health and Human Services, published 2026):
Residue numbers refer to the chain shown, from its start. Where two headings read alike, the source gives them in different places.

B1: A23-58.1HC/58.1LC_94GLTG (antibody, V domains shown)
VH: not shown
VL: EIVLTQSPGTLSLSPGERATLSCRASQSVSSSYLAWYQQKPGQAPRLLIYSASSRATGIPDRFSGSGSGTDFTLTISRLEPEDFAVYFCQQYGGLTGWTFGQGTKVEIK
B2: A23-58.1HC_Y100cA/S2E12LC (antibody, V domains shown)
VH: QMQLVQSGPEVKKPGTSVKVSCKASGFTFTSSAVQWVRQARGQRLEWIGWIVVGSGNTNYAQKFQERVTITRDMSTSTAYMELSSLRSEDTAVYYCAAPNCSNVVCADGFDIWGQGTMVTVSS
VL: B1 VL with E1D, S7T, S51G, F88Y, G93V
B3: B1-182.1HC/S2E12LC (antibody, V domains shown)
VH: not shown
VL: B1 VL with E1D, S7T, S51G, F88Y, G93V
B4: B1-182.1HC_F100cS/S2E12LC (antibody, V domains shown)
VH: not shown
VL: B1 VL with E1D, S7T, S51G, F88Y, G93V
B5: S2E12 (antibody, V domains shown)
VH: not shown
VL: B1 VL with E1D, S7T, S51G, F88Y, G93V
B6: A23-58.1HC/58.1LC_93VGLTG (antibody, V domains shown)
VH: not shown
VL: B1 VL with G93V
B7: B1-182.1HC/182.1LC_93VGLTG (antibody, V domains shown)
VH: not shown
VL: B1 VL with S51G, I59F, F88Y, G93V, K109R
B8: A23-58.1HC/S2E12LC (antibody, V domains shown)
VH: not shown
VL: B1 VL with E1D, S7T, S51G, F88Y, G93V
B9: A23-58.1HC/58.1LC_94GLT (antibody, V domains shown)
VH: not shown
VL: EIVLTQSPGTLSLSPGERATLSCRASQSVSSSYLAWYQQKPGQAPRLLIYSASSRATGIPDRFSGSGSGTDFTLTISRLEPEDFAVYFCQQYGGLTWTFGQGTKVEIK

Key:
Assay in all cases: cell-based or functional assay
[1] = molecular target: T1, SARS-CoV-2 spike protein, BA.1 (SARS-CoV-2, UniProt P0DTC2 14-1273)
[2] = molecular target: T2, SARS-CoV-2 spike protein, B.1.617.2 (SARS-CoV-2, UniProt P0DTC2 14-1273)
[3] = molecular target: T3, SARS-CoV-2 spike protein, B.1.351 (SARS-CoV-2, UniProt P0DTC2 14-1273)
[4] = molecular target: T1, SARS-CoV-2 spike protein, BA.1; remark: listed apart in the source
BA.2.75 = molecular target: BA.2.75
BA.4.6 = molecular target: BA.4.6
[5] = molecular target: T4, SARS-CoV-2 spike protein, BA.2.12.1 (SARS-CoV-2, UniProt P0DTC2 14-1273)
[6] = molecular target: SARS-CoV-2 spike protein, BA.1.1 (SARS-CoV-2, UniProt P0DTC2 14-1273)
[7] = molecular target: SARS-CoV-2 spike protein, BA.2 (SARS-CoV-2, UniProt P0DTC2 14-1273)
[8] = molecular target: T2, SARS-CoV-2 spike protein, B.1.617.2; remark: listed apart in the source
[9] = molecular target: T3, SARS-CoV-2 spike protein, B.1.351; remark: listed apart in the source
[10] = molecular target: T1, SARS-CoV-2 spike protein, BA.1; remark: listed apart in the source
[11] = molecular target: T4, SARS-CoV-2 spike protein, BA.2.12.1; remark: listed apart in the source

Binder	BA.1 neutralization, fold improvement over A19-58.1 [1]	neutralization IC50 [2]	neutralization IC80 [2]	neutralization IC50 [3]	neutralization IC80 [3]	neutralization IC50 [4]	neutralization IC80 [4]	neutralization IC50 [5]	neutralization IC80 [5]	neutralization IC50 [6]	neutralization IC80 [6]	neutralization IC50 [7]	neutralization IC80 [7]	BA.1 neutralization, fold improvement over B1-182.1 [1]	also measured
B1	> 27 fold	2.9 ng/mL	11.2 ng/mL	1.8 ng/mL	4.4 ng/mL	3.6 ng/mL	11.9 ng/mL	1.9 ng/mL	9.2 ng/mL						neutralization IC50 (BA.2.75): 1 ng/mL; neutralization IC80 (BA.2.75): 3.1 ng/mL; neutralization IC50 (BA.4.6): 4.2 ng/mL; neutralization IC80 (BA.4.6): 15.7 ng/mL
B2	20 fold	2.9 ng/mL	7.8 ng/mL	2.6 ng/mL	5.9 ng/mL	4.9 ng/mL	26.1 ng/mL	35.1 ng/mL	142 ng/mL	4.4 ng/mL	13.1 ng/mL	8.4 ng/mL	38.4 ng/mL		
B3		1.1 ng/mL	2.9 ng/mL	0.8 ng/mL	4.4 ng/mL	9.9 ng/mL	45.2 ng/mL	11.5 ng/mL	35 ng/mL	4.7 ng/mL	24.2 ng/mL	6.3 ng/mL	28 ng/mL	20 fold	
B4		1.2 ng/mL	3.3 ng/mL	1.5 ng/mL	4.4 ng/mL	13.9 ng/mL	51.6 ng/mL	14.9 ng/mL	54.2 ng/mL	8.4 ng/mL	20 ng/mL	9.4 ng/mL	31.7 ng/mL	> 14 fold	
B5		1.2 ng/mL	2.6 ng/mL	3.9 ng/mL	8.7 ng/mL		38.5 ng/mL	15.6 ng/mL	46.6 ng/mL	15.5 ng/mL	55.4 ng/mL	9.9 ng/mL	48.2 ng/mL		fold loss in neutralization [1]: < 10 fold loss; pseudovirus neutralization IC50 [1]: 8.8 ng/mL
B6	> 30 fold	5.8 ng/mL	12.4 ng/mL	2.7 ng/mL	5 ng/mL	3.3 ng/mL	11.2 ng/mL	3.4 ng/mL	11.5 ng/mL						neutralization IC50 (BA.2.75): 0.9 ng/mL; neutralization IC80 (BA.2.75): 3 ng/mL; neutralization IC50 (BA.4.6): 4.1 ng/mL; neutralization IC80 (BA.4.6): 14.8 ng/mL
B7														> 17 fold	neutralization IC50 [8]: 1.4 ng/mL; neutralization IC80 [8]: 5.9 ng/mL; neutralization IC50 [9]: 0.9 ng/mL; neutralization IC80 [9]: 4.4 ng/mL; neutralization IC50 [10]: 11.5 ng/mL; neutralization IC80 [10]: 39.6 ng/mL
B8	10 fold	2.2 ng/mL	7.6 ng/mL	3.5 ng/mL	7.9 ng/mL	9.8 ng/mL	31.1 ng/mL	56.6 ng/mL	201 ng/mL	3.8 ng/mL	15.8 ng/mL	6.7 ng/mL	26.9 ng/mL		
B9	7 fold						46.4 ng/mL		105 ng/mL						pseudovirus neutralization IC50 [1]: 13.7 ng/mL; pseudovirus neutralization IC50 [11]: 25 ng/mL
